T1: human FcγRIIa, type R, extracellular domain, His-tagged (human, UniProt P12318 34-217)
T1 construct: extracellular domain; also called hFcγR IIa R
T1 sequence (looked up): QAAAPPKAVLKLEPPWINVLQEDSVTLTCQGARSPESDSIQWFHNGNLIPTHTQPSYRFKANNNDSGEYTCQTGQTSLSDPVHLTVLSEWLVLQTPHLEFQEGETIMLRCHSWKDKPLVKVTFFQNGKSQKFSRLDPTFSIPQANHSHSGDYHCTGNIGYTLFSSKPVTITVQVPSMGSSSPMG

T2: human FcγRIIa, type H, extracellular domain, His-tagged (human, UniProt P12318 34-217)
T2 construct: extracellular domain; also called hFcγR IIa H
T2 sequence (looked up): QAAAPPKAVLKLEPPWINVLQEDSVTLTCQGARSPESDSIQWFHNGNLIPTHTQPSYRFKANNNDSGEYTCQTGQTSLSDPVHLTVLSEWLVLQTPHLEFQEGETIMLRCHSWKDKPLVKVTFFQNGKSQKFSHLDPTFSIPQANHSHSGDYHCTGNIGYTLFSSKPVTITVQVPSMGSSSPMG

T3: human FcγRIIb extracellular domain, His-tagged (human, UniProt P31994 43-217)
T3 construct: extracellular domain; also called hFcγR IIb
T3 sequence (looked up): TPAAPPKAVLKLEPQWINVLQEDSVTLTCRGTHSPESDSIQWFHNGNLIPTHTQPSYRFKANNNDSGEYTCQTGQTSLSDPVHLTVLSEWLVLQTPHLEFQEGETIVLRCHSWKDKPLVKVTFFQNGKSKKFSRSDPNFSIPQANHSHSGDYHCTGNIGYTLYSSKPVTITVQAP


Tests used:
[1] = target: T4, human FcRn (human, UniProt P55899 24-290; P61769 21-119); assay: KD of 04H1637-G1m/04L1610-lam1 divided by KD of this antibody; SPR pH 6.0
T4 construct: Prepared by the method of WO 2010/107110; also called hFcRn
T4 sequence (P55899 24-290 limits assumed, chain 1 of 2): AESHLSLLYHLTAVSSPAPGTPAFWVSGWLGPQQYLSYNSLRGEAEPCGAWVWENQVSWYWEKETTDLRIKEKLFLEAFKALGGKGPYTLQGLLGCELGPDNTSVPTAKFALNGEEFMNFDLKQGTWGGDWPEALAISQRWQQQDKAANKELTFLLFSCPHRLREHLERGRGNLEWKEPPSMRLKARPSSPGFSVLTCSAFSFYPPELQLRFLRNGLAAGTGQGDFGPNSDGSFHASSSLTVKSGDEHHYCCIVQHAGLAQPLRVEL
T4 sequence (P61769 21-119 limits assumed, chain 2 of 2): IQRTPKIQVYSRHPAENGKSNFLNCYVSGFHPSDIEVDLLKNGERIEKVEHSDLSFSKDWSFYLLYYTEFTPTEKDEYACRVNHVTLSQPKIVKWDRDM
Method in brief: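 Biacore T200 SPR at 25 °C in 50 mM Na-phosphate, 150 mM NaCl, 0.05% Tween20, pH 6.0; antibodies captured via anti-Fab-lambda on SA chip, FcRn as analyte. KD from steady-state model; reference KD (native IgG1 variant) divided by each variant's KD.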

[2] = target: T5, human FcγRIa extracellular domain, His-tagged (human, UniProt P12314 16-292); assay: KD of 04H1637-G1m/04L1610-lam1 divided by KD of this antibody; SPR pH 7.4
T5 construct: also called hFcγR Ia
T5 sequence (P12314 16-292): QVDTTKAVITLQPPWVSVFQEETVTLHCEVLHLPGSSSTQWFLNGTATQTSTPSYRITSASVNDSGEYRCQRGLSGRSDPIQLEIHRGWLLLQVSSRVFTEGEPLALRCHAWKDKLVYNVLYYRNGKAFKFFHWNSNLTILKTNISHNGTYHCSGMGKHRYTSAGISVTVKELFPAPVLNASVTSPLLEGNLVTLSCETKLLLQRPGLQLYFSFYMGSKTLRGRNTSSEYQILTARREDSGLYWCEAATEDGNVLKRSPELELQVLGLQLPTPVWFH

[3] = target: T1, human FcγRIIa, type R, extracellular …; assay: as above
[4] = target: T2, human FcγRIIa, type H, extracellular …; assay: as above
[5] = target: T6, human FcγRIIIa, allotype F158, extracellular domain, His-tagged (human, UniProt P08637 17-208); assay: as above
T6 construct: extracellular domain; also called hFcγR IIIa F
T6 sequence (P08637 17-208): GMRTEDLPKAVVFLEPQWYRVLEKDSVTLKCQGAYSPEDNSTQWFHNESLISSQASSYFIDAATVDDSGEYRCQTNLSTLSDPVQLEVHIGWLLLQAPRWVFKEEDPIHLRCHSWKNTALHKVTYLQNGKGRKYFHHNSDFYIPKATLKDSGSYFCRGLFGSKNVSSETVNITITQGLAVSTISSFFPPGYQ

[6] = target: T7, human FcγRIIIa, allotype V158, extracellular domain, His-tagged (human, UniProt P08637 17-208); assay: as above
T7 construct: extracellular domain; also called hFcγR IIIa V
T7 sequence (P08637 17-208 F176V): as the sequence (P08637 17-208) above, with F160V counted along it

[7] = target: T3, human FcγRIIb extracellular domain, …; assay: SPR Biacore T200, 25C, pH 7.4; FcγRIIb at 1000 nM, corrected by captured antibody
Method in brief: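 Antibodies captured via anti-Fab-lambda on SA chip; FcγRs flowed in 50 mM Na-phosphate, 150 mM NaCl, 0.05% Tween20, pH 7.4, 25° C. KD by 1:1 Langmuir (FcγRIa, FcγRIIIa) or steady-state model (FcγRIIa); FcγRIIb binding normalised to captured antibody amount.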

[8] = target: T3, human FcγRIIb extracellular domain, …; assay: binding amount of this antibody divided by that of 04H1637-G1m/04L1610-lam1; SPR pH 7.4

| Binder | Relative value to KD between G1m and hFcRn [1] [ratio] | Relative value to KD between G1m and hFcγRs [2] [ratio] | Relative value to KD between G1m and hFcγRs [3] [ratio] | Relative value to KD between G1m and hFcγRs [4] [ratio] | Relative value to KD between G1m and hFcγRs [5] [ratio] | Relative value to KD between G1m and hFcγRs [6] [ratio] | Binding amount [7] | Relative binding amount [8] [ratio] |
| --- | --- | --- | --- | --- | --- | --- | --- | --- |
| 04H1654-KT481/04L1610-lam1//04H1656-HT498/04L1610-lam1 (antibody, IgG1, Heterodimerized IgG1 Fc variant with N434A/Y436T/Q438R/S440E) heavy 1: QVQLVESGGGVVQPGGSLRLSCAASGFTFSSKTMNWVRQAPGKGLEWVSSISTQSHYIYYARSVRGRFTISRDNAKNSLYLQMNSLRAEDTAVYYCARYGKREDMLWVFDYWGQGTLVTVSSASTKGPSVFPLAPSSKSTSGGTAALGCLVKDYFPEPVTVSWNSGALTSGVHTFPAVLQSSGLYSLSSVVTVPSSSLGTQTYICNVNHKPSNTKVDKRVEPKSCDKTHTCPPCPAPEFQWGPMVFLFPPKPKDVLMISRTPEVTCVVVDVSDEEPEVKFNWYVDGVEVHNAKTKPREEQYNATYRVVSVLPVLHQDWLNGKEYKCKVSNDALPAPEEKTISKAKGQPREPQVYTLPPSRKEMTKNQVSLTCLVKGFYPSDIAVEWESNGQPENNYKTTPPVLDSDGSFFLYSKLTVDKSRWQQGNVFSCSVMHEALHAHTTRKELSLSP heavy 2: QVQLVESGGGVVQPGGSLRLSCAASGFTFSSKTMNWVRQAPGKGLEWVSSISTQSHYIYYAESVRGRFTISRDNAKNSLYLQMNSLRAEDTAVYYCARYGAREDMLWVFDYWGQGTLVTVSSASTKGPSVFPLAPSSKSTSGGTAALGCLVKDYFPEPVTVSWNSGALTSGVHTFPAVLQSSGLYSLSSVVTVPSSSLGTQTYICNVNHKPSNTKVDKRVEPKSCDKTHTCPPCPAPELLAGPSVFLFPPKPKDVLMISRTPEVTCVVVDVSHEEPEVKFNWYVDGVEVHNAKTKPREEQYNATYRVVSVLPVLHQDWLNGKEYKCKVSNDALPAPEEETISKAKGQPREPQVYTLPPSREEMTKNQVSLTCLVKGFYPSDIAVEWESNGQPENNYKTTPPVLDSDGSFFLYSKLTVDKSRWQQGNVFSCSVMHEALHAHTTREELSLSP light: QSALTQPPSASGSPGQSVTISCEGPSTGVGDYNWVHWYQQHPGKAPKLMIYFTSKKPSGVPDRFSGSKSGNTASLTVSGLQAEDEADYYCQTYAAPLGPMFGGGTKLTVLGQPKAAPSVTLFPPSSEELQANKATLVCLISDFYPGAVTVAWKADSSPVKAGVETTTPSKQSNNKYAASSYLSLTPEQWKSHRSYSCQVTHEGSTVEKTVAPTECS | 2.3 | 1.5 | 7.7 | 6.5 | 495 | 152 | 0.022 RU per RU of captured antibody | 2.7 |
| 04H1654-KT481/04L1612-lam1//04H1656-HT498/04L1612-lam1 (antibody, IgG1, Heterodimerized IgG1 Fc variant with N434A/Y436T/Q438R/S440E) heavy 1: QVQLVESGGGVVQPGGSLRLSCAASGFTFSSKTMNWVRQAPGKGLEWVSSISTQSHYIYYARSVRGRFTISRDNAKNSLYLQMNSLRAEDTAVYYCARYGKREDMLWVFDYWGQGTLVTVSSASTKGPSVFPLAPSSKSTSGGTAALGCLVKDYFPEPVTVSWNSGALTSGVHTFPAVLQSSGLYSLSSVVTVPSSSLGTQTYICNVNHKPSNTKVDKRVEPKSCDKTHTCPPCPAPEFQWGPMVFLFPPKPKDVLMISRTPEVTCVVVDVSDEEPEVKFNWYVDGVEVHNAKTKPREEQYNATYRVVSVLPVLHQDWLNGKEYKCKVSNDALPAPEEKTISKAKGQPREPQVYTLPPSRKEMTKNQVSLTCLVKGFYPSDIAVEWESNGQPENNYKTTPPVLDSDGSFFLYSKLTVDKSRWQQGNVFSCSVMHEALHAHTTRKELSLSP heavy 2: QVQLVESGGGVVQPGGSLRLSCAASGFTFSSKTMNWVRQAPGKGLEWVSSISTQSHYIYYAESVRGRFTISRDNAKNSLYLQMNSLRAEDTAVYYCARYGAREDMLWVFDYWGQGTLVTVSSASTKGPSVFPLAPSSKSTSGGTAALGCLVKDYFPEPVTVSWNSGALTSGVHTFPAVLQSSGLYSLSSVVTVPSSSLGTQTYICNVNHKPSNTKVDKRVEPKSCDKTHTCPPCPAPELLAGPSVFLFPPKPKDVLMISRTPEVTCVVVDVSHEEPEVKFNWYVDGVEVHNAKTKPREEQYNATYRVVSVLPVLHQDWLNGKEYKCKVSNDALPAPEEETISKAKGQPREPQVYTLPPSREEMTKNQVSLTCLVKGFYPSDIAVEWESNGQPENNYKTTPPVLDSDGSFFLYSKLTVDKSRWQQGNVFSCSVMHEALHAHTTREELSLSP light: QSALTQPPSASGSPGQSVTISCEGPSTGVGDYTYVHWYQQHPGKAPKLMIYFTSKKPSGVPDRFSGSKSGNTASLTVSGLQAEDEADYYCQTYAAPLGPMFGGGTKLTVLGQPKAAPSVTLFPPSSEELQANKATLVCLISDFYPGAVTVAWKADSSPVKAGVETTTPSKQSNNKYAASSYLSLTPEQWKSHRSYSCQVTHEGSTVEKTVAPTECS | 2.2 | 1.1 | 7.6 | 6.4 | 479 | 145 | 0.022 RU per RU of captured antibody | 2.8 |
